Measurements as given in paper PMC7718890, “High-throughput screening to discover inhibitors of the CarD·RNA polymerase protein–protein interaction in Mycobacterium tuberculosis” (Scientific Reports, 2020).

Molecular target: Mycobacterium tuberculosis RNA polymerase, wild type (Mycobacterium tuberculosis) (UniProt P9WGY9)
Experiment: FP

## CarD T24C labelled with BODIPY-FL
  Kd: 56 nM
